Measurements published in the supplement of paper PMC10567573.

B1: KLHL12 (parent)
chain: SMTTPRCYVGATVLRGRLYAIAGY
B2: PDLIM7 (parent)
chain: AAGGVPGGGSNNGKTPVCHQCHKV
B3: ANKRD40 (parent)
chain: SLRENDFIEIELDRQELTYQELLR

Variants of: B1
Experiment: protein stability index of a GFP-peptide fusion (GPS, HEK-293T) (PSI 1-6); higher = more stable
Settings: c terminus: a fixed tail appended
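Further: lentivirally expressed fusions sorted by FACS into six bins by GFP to DsRed ratio, PSI derived from sequencing read proportions per bin multiplied by bin number.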

Protein stability index of substitutions, site by site:
C7: E 1.47 | R 2.43 | L 3.82 | T 2.16 | K 2.18 | V 2.13 | A 1.32 | H 1.16 | Q 1.71 | P 1.06 | M 4.32 | N 1.62 | F 3.95 | D 2.41 | G 3.82 | I 3.84 | S 3.15
T4: D 2.27 | N 3.79 | M 3.38 | I 2.44 | S 2.3 | Y 2.75 | V 2.65 | R 2.16 | P 1.93 | F 2.12 | H 3.03 | L 2.16 | K 2.69 | A 1
G10: F 1.36 | M 2.75 | D 1.1 | C 2.8 | N 1.95 | E 3.01 | H 1.85 | K 2.11 | I 2.94 | L 2.13 | A 1.29
Y8: D 1.71 | T 2.12 | F 2.98 | M 1.57 | S 2.77 | Q 2.18 | L 2.48 | N 1.5 | P 1.71 | A 2 | H 1.74 | K 2.88 | I 3.73 | E 1.06 | R 1.21 | W 1.82
P5: T 2.22 | Q 2.71 | H 4.85 | W 2.99 | S 3.27 | R 4.23 | M 2.98 | I 1.79 | N 2.22 | Y 2.19
R6: T 1.53 | Q 2.54 | P 1.83 | G 1.27 | K 2.04 | F 2.04 | N 2.26 | I 1.55 | D 2.56 | A 1.73 | L 1.18 | S 2.42
M2: R 2.35 | V 1.97 | H 1.93 | G 2.78 | S 3.02 | Q 1.48 | N 2.96 | E 1.68 | A 2.19 | Y 2.77 | F 3.06 | D 2.48 | T 2.22 | L 2.64 | P 1.33 | I 1.65
S1: L 3.32 | H 1.51 | M 1.89 | D 2.24 | N 1.9 | Q 1.39 | R 3.81 | C 3.04 | F 2.24 | K 1.92 | A 1.85 | I 2.52 | E 1.66 | G 2.39 | P 3.62
T3: I 1.02 | H 2.34 | P 1.59 | V 2.36 | N 1.46 | C 2.75 | F 1.62 | K 2.08 | E 1.65 | A 2.97 | L 2.72 | S 2.31 | Y 1.62 | Q 2.67 | M 1.99
V9: R 3.6 | G 1.93 | Q 1.96 | M 2.43 | H 2.62 | L 3.27 | Y 3.18 | I 2.74 | K 1.63 | A 2 | P 1.7 | E 2.3 | F 2.87 | N 2.26 | T 1.74 | W 2.17 | D 1.4 | S 1.82

Variants of: B2
Experiment: as above
Settings: c terminus: a fixed tail appended

Protein stability index, by site and new letter:
G9: N 3.21 | I 3.48 | K 3.64 | E 4.04 | H 3.21 | T 2.79 | P 3.69 | W 2.98 | L 3.19 | R 3.06 | S 2.65 | V 2.59 | F 2.39 | M 3.22 | C 2.13 | Q 3.6 | Y 3.56 | D 4.5
S10: L 2.47 | F 2.02 | T 2.67 | C 2.19 | K 3.18 | P 2.9 | D 3.96 | Q 3.02 | N 3.32 | I 2.37 | H 2.21
A1: S 2.44 | I 3.52 | V 3.93 | T 2.73 | G 3.52 | D 4.34 | C 3.35 | H 4.13 | W 3.22 | P 3.33 | N 3.03 | M 3.5 | K 3.36 | R 2.36 | Y 1.95 | L 3.76 | F 2.45 | E 4.24
G7: Q 3.93 | P 3.4 | L 3.47 | F 2.9 | K 4.09 | H 3.68 | E 4.47 | R 3.89 | S 3.95 | C 3.49 | N 4.05 | M 2.06 | Y 3.4 | D 4.3 | V 3.53 | T 3.56 | W 2.26 | I 3.1
G8: I 3.48 | D 4.5 | L 3.72 | H 3.3 | N 3.14 | C 3.12 | K 3.52 | P 3.8 | R 3.31 | A 3.58 | Y 2.96 | T 4.16 | Q 3.87 | E 5.24 | V 3.53 | F 2.43 | S 2.9 | M 3.46 | W 3.56
G3: H 4.17 | Y 3.54 | N 3.14 | K 3.87 | T 3.3 | F 3.31 | I 2.02 | S 3.42 | C 3.41 | D 4.08
P6: Q 3.42 | L 3.23 | M 4.35 | Y 3.73 | I 2.57 | E 4.88 | N 3.46 | R 3.73 | V 3.04 | C 3.05 | W 1.96 | F 2.85 | K 4.05 | G 2.19
A2: Y 3.72 | E 4.76 | N 4.08 | D 3.81 | R 3.33 | K 4.11 | H 3.63 | T 3.08 | C 2.73 | F 3.86 | Q 4.19 | M 3.78 | P 2.15 | V 3.97 | G 3.43 | I 3.49 | S 3.84 | L 3.53 | W 3.88

Variants of: B3
Experiment: as above
Settings: c terminus: a fixed tail appended

Protein stability index, by site and new letter:
L23: P 3.58 | R 3.75 | M 3.16 | G 3.48 | I 2.76 | T 3.59 | W 2.04 | K 3.85 | D 4.25 | V 3.53 | Y 3.43 | C 2.97 | F 2.54 | H 3.6 | A 3.73 | E 3.99 | N 4.05 | Q 3.94 | S 4
E21: R 2.62 | V 1.99 | T 2.09 | S 2.71 | W 1.85 | Y 1.77
R24: P 3.06 | V 2.71 | L 3.09 | S 2.92 | F 2.64 | E 3.88 | T 3.06 | G 3.27 | C 2.72 | H 2.77 | A 3.23 | D 3.17 | N 3.49 | I 2.35 | M 2.52 | Y 2.43 | W 2.26 | Q 3.04 | K 3.12
L22: R 3.74 | W 2.86 | S 3.8 | P 3.56 | H 3.42 | D 4.54 | G 3.57 | Y 2.9 | I 2.53 | E 3.66 | A 3.8 | F 3.14 | C 3.58 | Q 4.02 | K 3.97 | N 3.92 | V 2.77 | T 3.45 | M 3.34
